The values that follow come from US20220160874A1.

The target in this test is CNTF receptor expressed on TF-1.CN5a.1 (ATCC CRL-2512) cells (UniProt P26992). Nature of the test: cell-based or functional assay.
Sequence of UniProt P26992 (P26992 23-342 limits assumed): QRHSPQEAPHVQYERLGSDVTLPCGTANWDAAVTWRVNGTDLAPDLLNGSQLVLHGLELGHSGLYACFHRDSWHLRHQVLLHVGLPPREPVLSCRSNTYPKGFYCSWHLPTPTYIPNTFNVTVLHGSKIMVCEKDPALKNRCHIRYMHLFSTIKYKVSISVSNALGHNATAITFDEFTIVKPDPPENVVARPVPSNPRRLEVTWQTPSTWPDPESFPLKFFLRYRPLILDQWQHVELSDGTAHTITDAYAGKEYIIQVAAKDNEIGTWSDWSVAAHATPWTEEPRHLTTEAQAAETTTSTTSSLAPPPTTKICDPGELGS

“CNTF control protein (Life Technologies) (ligand)”: the EC50, TF-1.CN5a.1 cell proliferation was 0.11 pM.
